This test has as its target recombinant GC (Cerezyme, Genzyme Therapeutics) (UniProt P04062). Description: cell-based or functional assay.

The star is where a group is joined. Biotin = O=C1N[C@H]2[C@H](CS[C@H]2CCCCC(=O)*)N1; Ttds = NCCCOCCOCCOCCCNC(=O)CCC(=O)*

Data on two molecules can be found in US20170258870A1.

B1: 3xD Helix 5 peptide (peptide)
peptide: {Biotin-Ttds}-LREDDEAMDKAYQQKLFVTHTVDE-OH
For the molecule B1, the half-life of GC activity at 37° C. (stabilization assay) came out at 24 h.

B2: Helix 5 peptide (LIMP-2-derived, L152-E175) (peptide)
peptide: {Biotin-Ttds}-LREIIEAMLKAYQQKLFVTHTVDE-OH
Take B2: the GC enzyme activity was 5 times and the half-life of GC activity at 37° C. (stabilization assay) was 48 h.
